Test results: paper PMC3471226 (The Journal of Cell Biology, 2012)
Blank lines part the entries; values can stand above or below the molecule they belong to.

Experiments:
[1] = target: GST-talin1 A366/368 (mouse) (UniProt P26039); experiment: pull-down
[2] = target: T1, GST-Tiam1-PDZ4 (mouse, UniProt Q60610 765-1234); experiment: SPR
T1 sequence: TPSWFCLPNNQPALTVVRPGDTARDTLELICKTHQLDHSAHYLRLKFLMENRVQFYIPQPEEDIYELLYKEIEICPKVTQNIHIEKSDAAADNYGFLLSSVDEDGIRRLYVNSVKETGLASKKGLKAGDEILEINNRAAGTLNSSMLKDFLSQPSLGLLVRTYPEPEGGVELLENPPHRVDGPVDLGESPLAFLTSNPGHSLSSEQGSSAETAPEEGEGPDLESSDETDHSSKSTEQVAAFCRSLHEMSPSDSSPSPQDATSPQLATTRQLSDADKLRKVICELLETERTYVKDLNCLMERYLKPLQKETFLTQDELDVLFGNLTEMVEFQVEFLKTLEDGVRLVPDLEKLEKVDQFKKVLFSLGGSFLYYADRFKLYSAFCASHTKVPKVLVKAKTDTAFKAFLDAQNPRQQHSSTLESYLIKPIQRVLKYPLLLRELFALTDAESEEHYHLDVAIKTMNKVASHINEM

decrease of association relative to wild type [1]: 90%
Molecule: Tiam1-C1199-HA (from UniProt Q60610 1-1591) (domain or fragment)

Kd [2]: ~430 nM
B1: His-talin1 (1–433 aa) (domain or fragment, mouse, UniProt P26039 1-433, looked up)
chain: MVALSLKISIGNVVKTMQFEPSTMVYDACRMIRERIPEALAGPPNDFGLFLSDDDPKKGIWLEAGKALDYYMLRNGDTMEYRKKQRPLKIRMLDGTVKTIMVDDSKTVTDMLMTICARIGITNHDEYSLVRELMEEKKDEGTGTLRKDKTLLRDEKKMEKLKQKLHTDDELNWLDHGRTLREQGVEEHETLLLRRKFFYSDQNVDSRDPVQLNLLYVQARDDILNGSHPVSFDKACEFAGFQCQIQFGPHNEQKHKAGFLDLKDFLPKEYVKQKGERKIFQAHKNCGQMSEIEAKVRYVKLARSLKTYGVSFFLVKEKMKGKNKLVPRLLGITKECVMRVDEKTKEVIQEWSLTNIKRWAASPKSFTLDFGDYQDGYYSVQTTEGEQIAQLIAGYIDIILKKKKSKDHFGLEGDEESTMLEDSVSPKKSTVLQ
